Reference: article PMC6053248, “GROWTH-REGULATING FACTOR 9 negatively regulates arabidopsis leaf growth by controlling ORG3 and restricting cell proliferation in leaf primordia”

T1: GRF9-CELD (Arabidopsis thaliana (Col-0?)) (UniProt Q8S9M3)
T1 sequence: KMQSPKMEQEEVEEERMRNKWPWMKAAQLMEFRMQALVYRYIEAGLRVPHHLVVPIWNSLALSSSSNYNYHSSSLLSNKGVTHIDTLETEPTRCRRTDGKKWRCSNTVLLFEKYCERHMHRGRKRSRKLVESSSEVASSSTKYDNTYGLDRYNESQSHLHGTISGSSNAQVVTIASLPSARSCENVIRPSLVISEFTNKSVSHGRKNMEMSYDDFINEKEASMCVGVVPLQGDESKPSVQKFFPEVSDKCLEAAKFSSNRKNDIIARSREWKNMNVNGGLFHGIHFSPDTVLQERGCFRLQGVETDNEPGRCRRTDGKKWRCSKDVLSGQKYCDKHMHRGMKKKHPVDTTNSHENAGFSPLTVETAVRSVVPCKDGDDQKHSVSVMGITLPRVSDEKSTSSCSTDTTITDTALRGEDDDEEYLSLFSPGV

T2: GRF9-CELD (Arabidopsis thaliana, UniProt Q8S9M3 2-431)
T2 sequence: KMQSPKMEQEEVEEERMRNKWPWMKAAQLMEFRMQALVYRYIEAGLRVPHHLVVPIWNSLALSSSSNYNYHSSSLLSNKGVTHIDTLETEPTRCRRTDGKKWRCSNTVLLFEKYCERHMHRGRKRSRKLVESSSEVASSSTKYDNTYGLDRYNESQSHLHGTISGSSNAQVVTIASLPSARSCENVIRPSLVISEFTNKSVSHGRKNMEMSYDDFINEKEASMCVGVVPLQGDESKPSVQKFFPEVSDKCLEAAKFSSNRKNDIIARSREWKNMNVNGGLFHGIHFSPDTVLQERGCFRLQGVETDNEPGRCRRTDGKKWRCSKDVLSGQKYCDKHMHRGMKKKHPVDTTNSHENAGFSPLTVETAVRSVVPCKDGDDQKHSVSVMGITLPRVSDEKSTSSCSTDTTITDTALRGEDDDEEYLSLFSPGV


Tests used:
[1] = biological target: T1, GRF9-CELD (Arabidopsis thaliana (Col-0?)); assay: CELD plate binding assay (streptavidin plate); settings: CELD plate assay: 25 mM HEPES/KOH pH 7.0, 50 mM KCl, 0.5 mM DTT, 10 uM ZnCl2, 0.15 ug/ul herring sperm DNA, 0.3 mg/ml BSA, 10% glycerol, 0.025% NP-40, 2 pmol …
GRF9-CELD [2] = biological target: T2, GRF9-CELD; assay: competition; molar excess vs labelled N10; CELD plate assay: 25 mM HEPES/KOH pH 7.0, 50 mM KCl, 0.5 mM DTT, 10 uM ZnCl2, 0.15 ug/ul herring sperm DNA, 0.3 mg/ml BSA, 10% glycerol, 0.025% NP-40, 2 pmol probe; binding temperature not stated; EMSA buffer not given (cited protocols); settings: protein: recombinant, tags: C-terminal CELD (cellulase D) fusion, 6xHis, label: none
GRF9-CELD [3] = biological target: T2, GRF9-CELD; assay: EMSA; CELD plate assay: 25 mM HEPES/KOH pH 7.0, 50 mM KCl, 0.5 mM DTT, 10 uM ZnCl2, 0.15 ug/ul herring sperm DNA, 0.3 mg/ml BSA, 10% glycerol, 0.025% NP-40, 2 pmol probe; binding temperature not stated; EMSA buffer not given (cited protocols); settings: protein: recombinant; tags: C-terminal CELD (cellulase D) fusion, 6xHis; label: 5'-DY682; blunt
GRF9-CELD [4] = biological target: T2, GRF9-CELD; assay: CELD plate binding assay (streptavidin plate); 10 uM ZnCl2; CELD plate assay: 25 mM HEPES/KOH pH 7.0, 50 mM KCl, 0.5 mM DTT, 10 uM ZnCl2, 0.15 ug/ul herring sperm DNA, 0.3 mg/ml BSA, 10% glycerol, 0.025% NP-40, 2 pmol probe; binding temperature not stated; EMSA buffer not given (cited protocols); settings: protein: recombinant; tags: C-terminal CELD (cellulase D) fusion, 6xHis; label: biotin

Row | Molecule | binding signal (GRF9-CELD [4]) | also measured
1 | CCGGTACTGGTCTGACATACCAGAACTTCA (double strand) [GRFE1] | – | binding signal (relative to GRFE1) [1]: 1
2 | AGGTAAGTTACTGACACACTCCATTCTTGG (double strand) [GRFE15] | – | binding signal (relative to GRFE1) [1]: 0.8
3 | ORG3 EMSA competitor (dsDNA) DNA 1: CTTTCACTTCATACAACCTGACACCAAATCATCCACATCA DNA 2: TGTGGATGATTTGGTGTCAGGTTGTATGAAGTGAAAG | – | binding result (GRF9-CELD [2]; 3' overhang 3 nt on strand 1 (so in the source)): binds
4 | ORG3 EMSA mutated competitor (dsDNA) DNA 1: CTTTCACTTCATACAACCGGACACCAAATCATCCACATCA DNA 2: TGATGTGGATGATTTGGTGTCCGGTTGTATGAAGTGAAAG | – | binding result (GRF9-CELD [2]; blunt): no binding
5 | ORG3 promoter 40-bp EMSA probe (dsDNA) DNA 1: CTTTCACTTCATACAACCTGACACCAAATCATCCACATCA DNA 2: TGATGTGGATGATTTGGTGTCAGGTTGTATGAAGTGAAAG | – | binding result (GRF9-CELD [3]): binds
6 | GRFE1m7 (dsDNA) DNA 1: CCGGTACTGGTCTGAGATACCAGAACTTCA DNA 2: TGAAGTTCTGGTATCTCAGACCAGTACCGG | 0 relative to GRFE1 | –
7 | GRFE1m2 (dsDNA) DNA 1: CCGGTACTGGCCTGACACACCAGAACTTCA DNA 2: TGAAGTTCTGGTGTGTCAGGCCAGTACCGG | 0.43 ± 0.04 relative to GRFE1 | –
8 | GRFE1m5 (dsDNA) DNA 1: CCGGTACTGGTCTGACTTACCAGAACTTCA DNA 2: TGAAGTTCTGGTAAGTCAGACCAGTACCGG | 0 relative to GRFE1 | –
9 | GRFE1m1 (dsDNA) DNA 1: CCGGTACTGGACTGACACACCAGAACTTCA DNA 2: TGAAGTTCTGGTGTGTCAGTCCAGTACCGG | 0.79 ± 0.03 relative to GRFE1 | –
10 | GRFE1m4 (dsDNA) DNA 1: CCGGTACTGGTGTGACATACCAGAACTTCA DNA 2: TGAAGTTCTGGTATGTCACACCAGTACCGG | 0 relative to GRFE1 | –
11 | GRFE1m6 (dsDNA) DNA 1: CCGGTACTGGTCGGACATACCAGAACTTCA DNA 2: TGAAGTTCTGGTATGTCCGACCAGTACCGG | 0 relative to GRFE1 | –
12 | GRFE1m3 (dsDNA) DNA 1: CCGGTACTGGTCTGACAAACCAGAACTTCA DNA 2: TGAAGTTCTGGTTTGTCAGACCAGTACCGG | 0.89 ± 0.08 relative to GRFE1 | –
